According to patent publication US5525479A, “Fluorescence assay of Ras farnesyl protein transferase” (Merck & Co., Inc., priority 1994, dated 1996):
Ends that are not written are not given here. Peptide text beside a SMILES is read from it. * marks the point of attachment. Dansyl = CN(C)c1cccc2c(S(=O)(=O)*)cccc12

Target: recombinant human farnesyl:protein transferase (hFPTase) (Homo sapiens, UniProt P49354+P49356)
Assay: continuous fluorescence assay of farnesyl:protein transferase activity with dansylated acceptor peptide
Type: biochemical
Conditions: for substrate of FPTase (fluorescence enhancement): other dansylated peptides synthesized to optimize the sensitivity of the assay
Procedure: FIG. 1A is a fluorescence progress curve, A, of the reaction catalyzed by recombinant human farnesyl:protein transferase (hFPTase; 0.5 nM) using Ds-GlyCysValLeySer (SEQ.ID.NO.:1) (1.0 μM) as substrate in the presence of a saturating concentration of farnesyl diphosphate ([…]) in assay buffer (50 mM Tris-HCl, pH 7.5, 5 mM DTT, 5 mM MgCl2, 10 μM ZnCl2, and 0.2% octyl-β-D-glucopyranoside) at 30° C. Fluorescence data in the integration mode were obtained on a SPEX Fluorolog Model F112X1 spectrofluorimeter with λex =340 nm (slit width=4 nm) and λem =505 nm (slit width=8 nm) using 4 mm square microcells. Concentrations of stock solutions of Ds-GlyCysValLeuSer (SEQ.ID.NO.: 1 ) (in 20 mM Tris-CHl, pH 7.5, 10 mM EDTA) were calculated from the extinction coefficient of the dansyl moiety at 340 nm(ε=4250 M^-1 cm^-1).
Double reciprocal plot of initial velocity versus Ds-GlyCysValLeuSer (SEQ.ID.NO.:1) concentration in the presence of (.cndot.)0, and 50 nM CysIlePheMet (SEQ.ID.NO.:2) at 30° C. Reactions (400 μL) contained hFPTase(1 nM), FPP (10 μM) and varying concentrations of Ds-GlyCysValLeuSer (SEQ.ID.NO.:1) with or without 50 nM peptide CysIlePheMet (SEQ.ID.NO.:2) in assay buffer (see FIG. 1).
The continuous FPTase activity assay is based on the enhancement of fluorescence and the accompanying shift to lower wavelength emission maximum of certain fluorophores, like dansyl, upon change from a polar to non-polar molecular environment (Lakowicz, Principles of Fluorescence Spectroscopy, Plenum Press, New York, (1983)). The present invention utilizes an acceptor peptide substrate with an environmentally sensitive fluorescence probe positioned proximally to the reaction center. Substrate pentapeptide N-dansyl-GlyCysValLeuSer(Ds Gly CysValLeuSer) (SEQ.ID.NO.1) and expected product N-dansyl-Gly(S-farnesyl-Cys)ValLeuSer(Ds-Gly[f-Cys]LeuSer were synthesized by standard methods.
(Pompliano, et al., Biochemistry, 31, 3800-3807 (1992)).

Row | Compound | substrate of FPTase (fluorescence enhancement) | also measured
1 | CC(C)C[C@H](NC(=O)[C@@H](NC(=O)[C@H](CS)NC(=O)CNS(=O)(=O)c1cccc2c(N(C)C)cccc12)C(C)C)C(=O)N[C@@H](CO)C(=O)O [Ds-GlyCysValLeuSer, N-dansyl-L-glycinyl-L-cysteinyl-L-valinyl-L-leucinyl-L-serine] (Dansyl-GCVLS-OH) | – | kcat (Ds-GlyCysValLeuSer as acceptor substrate, Michaelis-Menten kinetics, assay buffer pH 7.5, 30° C.): 0.5 S^-1
2 | CC(C)=CCC/C(C)=C/CC/C(C)=C/CO[P@@](=O)(O)OP(=O)(O)O (stereo in doubt) [FPP, farnesyl diphosphate, reference compound] | – | Km (in the presence of Ds-GlyCysValLeuSer as acceptor substrate, read-out: KM (FPP)): 0.03 µM
3 | Ds-GlyCysCysValLeuSer | substrates | –
4 | CysIlePheMet (CIFM) [reference compound] | – | Ki (competitive inhibitor of Ds-GlyCysValLeuSer binding, hFPTase 1 nM, FPP 10 μM, 30° C.): 9 nM
5 | Ds-CysValLeuSer (Dansyl-CVLS) [dansylated peptide] | substrates | –

Second part, led by results:

Row | substrate of FPTase (fluorescence enhancement) | Compound | also measured
6 | substrates | Ds-CysValIleMet (Dansyl-CVIM) [dansylated peptide] | –
7 | substrates | Ds-LysCysValLeuSer (Dansyl-KCVLS) [dansylated peptide] | –
